Source: patent publication US20210032299A1 (Eli Lilly, published 2021)
Starred links: 1 amine or outer side, 2 acyl side, 3 side chain; linkers in the order of their positions; H or OH if unused. Non-standard residues stand in square brackets, D forms with d. Groups on a side chain read outwards from the residue. No end group written: not given here. *: point of attachment. C20 diacid = O=C(O)CCCCCCCCCCCCCCCCCCC(=O)*; C18 diacid = O=C(O)CCCCCCCCCCCCCCCCC(=O)*; αMePhe(2-F) = C[C@](N)(Cc1ccccc1F)C(=O)O; γGlu = O=C(O)[C@H](CCC(=O)[*:2])N[*:1]; αMeF = C[C@](N)(Cc1ccccc1)C(=O)O; 4Pal = N[C@@H](Cc1ccncc1)C(=O)O; AEEA = NCCOCCOCC(=O)O; Aib = CC(C)(N)C(=O)O

T1: human glucose-dependent insulinotropic peptide receptor (human, UniProt P48546 22-466)
T1 sequence (looked up): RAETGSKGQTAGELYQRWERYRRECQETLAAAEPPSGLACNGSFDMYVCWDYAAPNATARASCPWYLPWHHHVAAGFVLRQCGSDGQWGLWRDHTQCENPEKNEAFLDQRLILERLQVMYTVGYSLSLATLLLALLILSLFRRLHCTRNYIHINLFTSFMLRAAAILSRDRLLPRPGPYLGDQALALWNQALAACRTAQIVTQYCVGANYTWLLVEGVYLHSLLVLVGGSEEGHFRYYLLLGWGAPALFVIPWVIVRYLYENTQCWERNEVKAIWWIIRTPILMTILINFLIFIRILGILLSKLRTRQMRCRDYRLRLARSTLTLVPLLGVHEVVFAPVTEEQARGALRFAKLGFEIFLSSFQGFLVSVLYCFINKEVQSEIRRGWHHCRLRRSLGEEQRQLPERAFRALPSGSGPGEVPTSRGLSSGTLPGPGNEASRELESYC


What was measured:
Experiment in all cases: cell-based or functional assay
human glucagon receptor = human glucagon receptor (human, UniProt P47871 26-477)
human glucagon receptor, sequence (P47871 26-477): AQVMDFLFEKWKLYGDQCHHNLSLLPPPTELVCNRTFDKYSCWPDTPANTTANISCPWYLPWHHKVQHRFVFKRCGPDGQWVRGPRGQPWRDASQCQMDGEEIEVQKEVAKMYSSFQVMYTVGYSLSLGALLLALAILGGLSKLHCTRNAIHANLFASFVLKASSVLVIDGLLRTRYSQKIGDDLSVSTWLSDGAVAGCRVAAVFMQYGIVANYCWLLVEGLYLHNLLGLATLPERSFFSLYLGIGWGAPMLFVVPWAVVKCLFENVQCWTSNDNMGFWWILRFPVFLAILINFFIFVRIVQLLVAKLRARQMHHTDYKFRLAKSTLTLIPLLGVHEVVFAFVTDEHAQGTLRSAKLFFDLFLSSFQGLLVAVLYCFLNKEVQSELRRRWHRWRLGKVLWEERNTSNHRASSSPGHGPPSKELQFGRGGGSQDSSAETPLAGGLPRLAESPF

[1] = molecular target: T1, human glucose-dependent insulinotropic …
human GLP-1 receptor = human GLP-1 receptor (human, UniProt P43220 24-463)

Row | Binder | hGcgR cAMP Rel EC50 (human glucagon receptor) [nM] | hGIPR cAMP Rel EC50 [1] [nM] | hGLP1R cAMP Rel EC50 (human GLP-1 receptor) [nM]
1 | Y[Aib]EGT[αMeF]ISDYSIALDKK([AEEA-AEEA-γGlu-C20 diacid])HQ[Aib]EFVNWLLAGGPSSGAPPPS-NH2 (N-terminus assumed; SMILES CC[C@H](C)[C@H](NC(=O)[C@H](CO)NC(=O)[C@H](Cc1ccc(O)cc1)NC(=O)[C@H](CC(=O)O)NC(=O)[C@H](CO)NC(=O)[C@@H](NC(=O)[C@](C)(Cc1ccccc1)NC(=O)[C@@H](NC(=O)CNC(=O)[C@H](CCC(=O)O)NC(=O)C(C)(C)NC(=O)[C@@H](N)Cc1ccc(O)cc1)[C@@H](C)O)[C@@H](C)CC)C(=O)N[C@@H](C)C(=O)N[C@@H](CC(C)C)C(=O)N[C@@H](CC(=O)O)C(=O)N[C@@H](CCCCN)C(=O)N[C@@H](CCCCNC(=O)COCCOCCNC(=O)COCCOCCNC(=O)CC[C@H](NC(=O)CCCCCCCCCCCCCCCCCCC(=O)O)C(=O)O)C(=O)N[C@@H](Cc1c[nH]cn1)C(=O)N[C@@H](CCC(N)=O)C(=O)NC(C)(C)C(=O)N[C@@H](CCC(=O)O)C(=O)N[C@@H](Cc1ccccc1)C(=O)N[C@H](C(=O)N[C@@H](CC(N)=O)C(=O)N[C@@H](Cc1c[nH]c2ccccc12)C(=O)N[C@@H](CC(C)C)C(=O)N[C@@H](CC(C)C)C(=O)N[C@@H](C)C(=O)NCC(=O)NCC(=O)N1CCC[C@H]1C(=O)N[C@@H](CO)C(=O)N[C@@H](CO)C(=O)NCC(=O)N[C@@H](C)C(=O)N1CCC[C@H]1C(=O)N1CCC[C@H]1C(=O)N1CCC[C@H]1C(=O)N[C@@H](CO)C(N)=O)C(C)C) [Example 25] | > 5000 | 0.0155 | 8.39
2 | Y[Aib]EGT[αMeF]ISDYSIALDKK([AEEA-AEEA-γGlu-C18 diacid])HQ[Aib]DFVE[4Pal]LLAGGPSSGAPPPS-NH2 (N-terminus assumed; SMILES CC[C@H](C)[C@H](NC(=O)[C@H](CO)NC(=O)[C@H](Cc1ccc(O)cc1)NC(=O)[C@H](CC(=O)O)NC(=O)[C@H](CO)NC(=O)[C@@H](NC(=O)[C@](C)(Cc1ccccc1)NC(=O)[C@@H](NC(=O)CNC(=O)[C@H](CCC(=O)O)NC(=O)C(C)(C)NC(=O)[C@@H](N)Cc1ccc(O)cc1)[C@@H](C)O)[C@@H](C)CC)C(=O)N[C@@H](C)C(=O)N[C@@H](CC(C)C)C(=O)N[C@@H](CC(=O)O)C(=O)N[C@@H](CCCCN)C(=O)N[C@@H](CCCCNC(=O)COCCOCCNC(=O)COCCOCCNC(=O)CC[C@H](NC(=O)CCCCCCCCCCCCCCCCC(=O)O)C(=O)O)C(=O)N[C@@H](Cc1c[nH]cn1)C(=O)N[C@@H](CCC(N)=O)C(=O)NC(C)(C)C(=O)N[C@@H](CC(=O)O)C(=O)N[C@@H](Cc1ccccc1)C(=O)N[C@H](C(=O)N[C@@H](CCC(=O)O)C(=O)N[C@@H](Cc1ccncc1)C(=O)N[C@@H](CC(C)C)C(=O)N[C@@H](CC(C)C)C(=O)N[C@@H](C)C(=O)NCC(=O)NCC(=O)N1CCC[C@H]1C(=O)N[C@@H](CO)C(=O)N[C@@H](CO)C(=O)NCC(=O)N[C@@H](C)C(=O)N1CCC[C@H]1C(=O)N1CCC[C@H]1C(=O)N1CCC[C@H]1C(=O)N[C@@H](CO)C(N)=O)C(C)C) [Example 23] | > 5000 | 0.0192 | 206
3 | YXEGTFISDYSILLDKKAQXEFVQWLLAGGPSSGAPPPS (D-Ala2; K17((2-[2-(2-Amino-ethoxy)-ethoxy]-acetyl)2-(γ-Glu)-CO-(CH2)16-CO2H); Aib20; C-terminal amide) [Example 27] | > 5000 | 0.0132 | > 5000
4 | YXEGTFISDYSILLDKKAQXEFVNWLLEGGPSSGAPPPS (D-Ala2; K17((2-[2-(2-Amino-ethoxy)-ethoxy]-acetyl)2-(γ-Glu)-CO-(CH2)16-CO2H); Aib20; C-terminal amide) [Example 28] | > 5000 | 0.0118 | > 5000
5 | YXEGTFISDYSILLDKKAQXEFVEWLLAGGPSSGAPPPS (D-Ala2; K17((2-[2-(2-Amino-ethoxy)-ethoxy]-acetyl)2-(γ-Glu)-CO-(CH2)16-CO2H); Aib20; C-terminal amide) [Example 29] | > 5000 | 0.00679 | > 5000
6 | Y[Aib]EGTFISDYSI[Aib]LDKK([AEEA-AEEA-γGlu-C18 diacid])HQ[Aib]DFVE[4Pal]LLAGGPSSGAPPPS-NH2 (N-terminus assumed; SMILES CC[C@H](C)[C@H](NC(=O)[C@H](Cc1ccccc1)NC(=O)[C@@H](NC(=O)CNC(=O)[C@H](CCC(=O)O)NC(=O)C(C)(C)NC(=O)[C@@H](N)Cc1ccc(O)cc1)[C@@H](C)O)C(=O)N[C@@H](CO)C(=O)N[C@@H](CC(=O)O)C(=O)N[C@@H](Cc1ccc(O)cc1)C(=O)N[C@@H](CO)C(=O)N[C@H](C(=O)NC(C)(C)C(=O)N[C@@H](CC(C)C)C(=O)N[C@@H](CC(=O)O)C(=O)N[C@@H](CCCCN)C(=O)N[C@@H](CCCCNC(=O)COCCOCCNC(=O)COCCOCCNC(=O)CC[C@H](NC(=O)CCCCCCCCCCCCCCCCC(=O)O)C(=O)O)C(=O)N[C@@H](Cc1c[nH]cn1)C(=O)N[C@@H](CCC(N)=O)C(=O)NC(C)(C)C(=O)N[C@@H](CC(=O)O)C(=O)N[C@@H](Cc1ccccc1)C(=O)N[C@H](C(=O)N[C@@H](CCC(=O)O)C(=O)N[C@@H](Cc1ccncc1)C(=O)N[C@@H](CC(C)C)C(=O)N[C@@H](CC(C)C)C(=O)N[C@@H](C)C(=O)NCC(=O)NCC(=O)N1CCC[C@H]1C(=O)N[C@@H](CO)C(=O)N[C@@H](CO)C(=O)NCC(=O)N[C@@H](C)C(=O)N1CCC[C@H]1C(=O)N1CCC[C@H]1C(=O)N1CCC[C@H]1C(=O)N[C@@H](CO)C(N)=O)C(C)C)[C@@H](C)CC) [Example 24] | > 5000 | 0.0699 | > 5000
7 | Ac-[dY]AEGT[αMePhe(2-F)]ISDYSIALDKK([AEEA-AEEA-γGlu-C18 diacid])HQ[Aib]EFVNYLLAGGPSSGAPPPS-NH2 (SMILES CC[C@H](C)[C@H](NC(=O)[C@H](CO)NC(=O)[C@H](Cc1ccc(O)cc1)NC(=O)[C@H](CC(=O)O)NC(=O)[C@H](CO)NC(=O)[C@@H](NC(=O)[C@](C)(Cc1ccccc1F)NC(=O)[C@@H](NC(=O)CNC(=O)[C@H](CCC(=O)O)NC(=O)[C@H](C)NC(=O)[C@@H](Cc1ccc(O)cc1)NC(C)=O)[C@@H](C)O)[C@@H](C)CC)C(=O)N[C@@H](C)C(=O)N[C@@H](CC(C)C)C(=O)N[C@@H](CC(=O)O)C(=O)N[C@@H](CCCCN)C(=O)N[C@@H](CCCCNC(=O)COCCOCCNC(=O)COCCOCCNC(=O)CC[C@H](NC(=O)CCCCCCCCCCCCCCCCC(=O)O)C(=O)O)C(=O)N[C@@H](Cc1c[nH]cn1)C(=O)N[C@@H](CCC(N)=O)C(=O)NC(C)(C)C(=O)N[C@@H](CCC(=O)O)C(=O)N[C@@H](Cc1ccccc1)C(=O)N[C@H](C(=O)N[C@@H](CC(N)=O)C(=O)N[C@@H](Cc1ccc(O)cc1)C(=O)N[C@@H](CC(C)C)C(=O)N[C@@H](CC(C)C)C(=O)N[C@@H](C)C(=O)NCC(=O)NCC(=O)N1CCC[C@H]1C(=O)N[C@@H](CO)C(=O)N[C@@H](CO)C(=O)NCC(=O)N[C@@H](C)C(=O)N1CCC[C@H]1C(=O)N1CCC[C@H]1C(=O)N1CCC[C@H]1C(=O)N[C@@H](CO)C(N)=O)C(C)C) [Example 30] | > 5000 | 0.00572 | > 5000
8 | Y[Aib]EGT[αMePhe(2-F)]ISDYSIALDKK([AEEA-AEEA-γGlu-C20 diacid])HQ[Aib]EFVNWLLAGGPSSGAPPPS-NH2 (N-terminus assumed; SMILES CC[C@H](C)[C@H](NC(=O)[C@H](CO)NC(=O)[C@H](Cc1ccc(O)cc1)NC(=O)[C@H](CC(=O)O)NC(=O)[C@H](CO)NC(=O)[C@@H](NC(=O)[C@](C)(Cc1ccccc1F)NC(=O)[C@@H](NC(=O)CNC(=O)[C@H](CCC(=O)O)NC(=O)C(C)(C)NC(=O)[C@@H](N)Cc1ccc(O)cc1)[C@@H](C)O)[C@@H](C)CC)C(=O)N[C@@H](C)C(=O)N[C@@H](CC(C)C)C(=O)N[C@@H](CC(=O)O)C(=O)N[C@@H](CCCCN)C(=O)N[C@@H](CCCCNC(=O)COCCOCCNC(=O)COCCOCCNC(=O)CC[C@H](NC(=O)CCCCCCCCCCCCCCCCCCC(=O)O)C(=O)O)C(=O)N[C@@H](Cc1c[nH]cn1)C(=O)N[C@@H](CCC(N)=O)C(=O)NC(C)(C)C(=O)N[C@@H](CCC(=O)O)C(=O)N[C@@H](Cc1ccccc1)C(=O)N[C@H](C(=O)N[C@@H](CC(N)=O)C(=O)N[C@@H](Cc1c[nH]c2ccccc12)C(=O)N[C@@H](CC(C)C)C(=O)N[C@@H](CC(C)C)C(=O)N[C@@H](C)C(=O)NCC(=O)NCC(=O)N1CCC[C@H]1C(=O)N[C@@H](CO)C(=O)N[C@@H](CO)C(=O)NCC(=O)N[C@@H](C)C(=O)N1CCC[C@H]1C(=O)N1CCC[C@H]1C(=O)N1CCC[C@H]1C(=O)N[C@@H](CO)C(N)=O)C(C)C) [Example 26] | > 5000 | 0.00991 | 5.69
